How the values were obtained:
[1] = molecular target: HMPV F protein (NL/1/00, A1 sublineage), on virus (human metapneumovirus); assay: cell-based or functional assay
[2] = molecular target: RSV F protein of subtype A strain A2, on virus (respiratory syncytial virus subtype A strain A2) (UniProt P03420); assay: cell-based or functional assay
RSV F protein of subtype A strain A2, on virus (respiratory syncytial virus subtype A strain A2), sequence (P03420 26-574): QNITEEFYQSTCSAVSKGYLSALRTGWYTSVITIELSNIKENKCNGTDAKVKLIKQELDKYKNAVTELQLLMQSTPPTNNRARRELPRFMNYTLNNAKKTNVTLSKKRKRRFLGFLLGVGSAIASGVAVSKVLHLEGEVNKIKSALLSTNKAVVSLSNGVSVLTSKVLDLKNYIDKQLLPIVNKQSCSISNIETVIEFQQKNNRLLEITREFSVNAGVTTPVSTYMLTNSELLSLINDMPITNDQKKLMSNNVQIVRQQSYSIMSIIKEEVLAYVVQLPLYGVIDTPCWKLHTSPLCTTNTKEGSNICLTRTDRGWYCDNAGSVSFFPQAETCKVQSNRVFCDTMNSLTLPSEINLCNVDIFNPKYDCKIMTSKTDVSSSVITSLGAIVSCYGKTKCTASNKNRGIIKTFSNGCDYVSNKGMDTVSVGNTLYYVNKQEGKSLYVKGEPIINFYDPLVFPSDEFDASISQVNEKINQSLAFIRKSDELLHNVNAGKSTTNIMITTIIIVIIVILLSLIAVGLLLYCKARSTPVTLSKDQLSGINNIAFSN

Work on MPE8 (antibody) yielded an HMPV-A1 IC50 [1] of 0.07 µg/mL and an RSV-A2 IC50 [2] of 0.04 µg/mL.

Reference: patent publication US20220144922A1
